Experimental data published in patent US20090036365A1 (DYAX, published 2009).

Experiments:
[1] = molecular target: T1, human plasmin (human, UniProt P00747 97-810, limits assumed); test: binding of clonally pure display phage to plasmin relative to BPTI display phage
T1 construct: also called plasmin-beads; plasmin-agarose beads

[2] = molecular target: T1, human plasmin; test: preliminary plasmin inhibition test; measured Ki used as KD
[3] = molecular target: T1, human plasmin; test: inhibition of plasmin by soluble protein; measured Ki used as KD
[4] = molecular target: T1, human plasmin; test: as above; remark: listed apart in the source
[5] = molecular target: T1, human plasmin; test: display phage binding to immobilised protease
[6] = molecular target: Kallikrein; test: display phage binding to immobilised protease
[7] = molecular target: T2, Trypsin; test: display phage binding to immobilised protease
T2 construct: also called trypsin-agarose beads

[8] = molecular target: Thrombin; test: display phage binding to immobilised protease
[9] = molecular target: T2, Trypsin; test: display phage binding to immobilised trypsin, 2 washes
[10] = molecular target: T1, human plasmin; test: display phage binding to protease beads
[11] = molecular target: T1, human plasmin; test: inhibition of plasmin hydrolysis of a fluorogenic substrate, tight-binding fit; measured Ki used as KD

T1 sequence (P00747 97-810 limits assumed): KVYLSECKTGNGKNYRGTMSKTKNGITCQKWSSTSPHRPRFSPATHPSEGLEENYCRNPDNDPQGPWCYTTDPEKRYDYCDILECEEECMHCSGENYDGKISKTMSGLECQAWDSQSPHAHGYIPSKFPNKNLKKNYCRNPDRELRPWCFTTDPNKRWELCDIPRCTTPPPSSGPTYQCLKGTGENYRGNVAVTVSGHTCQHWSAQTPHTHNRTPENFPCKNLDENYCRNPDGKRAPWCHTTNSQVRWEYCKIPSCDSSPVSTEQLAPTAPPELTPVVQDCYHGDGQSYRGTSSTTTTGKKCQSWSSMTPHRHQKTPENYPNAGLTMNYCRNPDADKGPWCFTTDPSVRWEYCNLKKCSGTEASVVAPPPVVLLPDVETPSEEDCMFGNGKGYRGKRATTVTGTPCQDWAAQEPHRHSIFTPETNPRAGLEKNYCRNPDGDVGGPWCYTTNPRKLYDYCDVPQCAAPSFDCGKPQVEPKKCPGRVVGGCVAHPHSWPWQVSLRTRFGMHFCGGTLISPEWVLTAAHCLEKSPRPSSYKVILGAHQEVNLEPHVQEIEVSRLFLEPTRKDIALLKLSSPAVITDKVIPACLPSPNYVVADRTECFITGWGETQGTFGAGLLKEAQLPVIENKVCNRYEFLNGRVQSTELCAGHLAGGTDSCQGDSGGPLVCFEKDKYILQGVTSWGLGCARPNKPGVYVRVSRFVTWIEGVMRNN
T2 sequence (P00760 24-246): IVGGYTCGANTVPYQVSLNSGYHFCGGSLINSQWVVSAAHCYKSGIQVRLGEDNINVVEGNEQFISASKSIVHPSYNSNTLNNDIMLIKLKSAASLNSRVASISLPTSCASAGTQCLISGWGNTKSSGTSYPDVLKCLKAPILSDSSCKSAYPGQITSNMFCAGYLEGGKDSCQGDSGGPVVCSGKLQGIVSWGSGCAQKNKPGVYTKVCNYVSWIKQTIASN
Sequence of Kallikrein (P03952 20-390, chain 1 of 2): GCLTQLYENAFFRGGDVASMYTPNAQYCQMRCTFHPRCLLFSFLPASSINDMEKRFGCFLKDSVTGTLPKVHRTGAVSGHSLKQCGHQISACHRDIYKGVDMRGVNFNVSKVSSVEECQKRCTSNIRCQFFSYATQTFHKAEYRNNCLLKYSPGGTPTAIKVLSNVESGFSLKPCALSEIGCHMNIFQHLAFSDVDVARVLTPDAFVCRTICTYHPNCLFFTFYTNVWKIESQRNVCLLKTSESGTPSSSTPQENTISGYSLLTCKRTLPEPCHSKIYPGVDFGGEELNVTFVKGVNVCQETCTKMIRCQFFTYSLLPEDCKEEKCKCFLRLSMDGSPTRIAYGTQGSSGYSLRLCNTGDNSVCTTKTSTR
Sequence of Kallikrein (P03952 391-638, chain 2 of 2): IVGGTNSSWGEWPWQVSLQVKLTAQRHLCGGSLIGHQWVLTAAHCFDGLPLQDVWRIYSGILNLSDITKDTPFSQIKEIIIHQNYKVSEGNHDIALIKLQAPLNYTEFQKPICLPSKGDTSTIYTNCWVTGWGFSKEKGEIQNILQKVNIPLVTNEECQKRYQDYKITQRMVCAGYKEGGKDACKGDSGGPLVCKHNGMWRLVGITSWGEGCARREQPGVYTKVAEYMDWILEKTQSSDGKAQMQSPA

| Binder | Phage Binding (relative to BPTI phage) [1] | Kd [2] [nM] | also measured |
| --- | --- | --- | --- |
| SPI08 (designed binder, also called isolate 08) MHSFCAFKADGGPCRARFERFFFNIFTRQCEEFIYGGCEGNQNRFESLEECKKMCTRD | 2.6 fold of BPTI phage |  |  |
| SPI43 (designed binder) MHSFCAFKAETGPCRGKFDRWFFNIFTRQCESFHYGGCKGNQNRFESLEECKKMCTRD |  | > 4 |  |
| SPI11 (Selected Plasmin Inhibitor#11) (designed binder, also called isolate 11) MHSFCAFKAETGPCRARFDRWFFNIFTRQCEEFIYGGCEGNQNRFESLEECKKMCTRD | 3.2 fold of BPTI phage |  | Kd [3]: 0.088 nM; Kd [4]: 0.088 nM |
| SPI05 (designed binder, 105 for the printed residues 10-21) MHSFCAFKAESGPCRAKFARFFFNIFTRQCEEFIYGGCEGNQNRFESLEECKKMCTRD | 0.64 fold of BPTI phage |  |  |
| SPI47 (designed binder) MHSFCAFKADAGPCRAKFERFFFNIFTRQCEEFIYGGCEGNQNRFESLEECKKMCTRD |  | ~0.8 |  |
| SPI17 (designed binder, 104 for the printed residues 10-21) MHSFCAFKAEVGPCRARIQRFFFNIFTRQCEEFIYGGCEGNQNRFESLEECKKMCTRD | 0.09 fold of BPTI phage |  |  |
| SPI21 (designed binder, 116 for the printed residues 10-21) MHSFCAFKADSGACKGKFERWFFNIFTRQCEEFIYGGCEGNQNRFESLEECKKMCTRD | 0.38 fold of BPTI phage |  |  |
| QS4 displayed on gIIIp of M13 (designed binder, also called phage that display the LACI-K1 derivative QS4) MHSFCAFKADDGPCKARFERFFFNIFTRQCEQFYYGGCDGNQNRFESLEECKKMCTRD |  |  | relative binding (LACI-K1 phage = unit) [5]: 52 fold of LACI-K1 phage; relative binding (LACI-K1 phage = unit) [6]: 0.9 fold of LACI-K1 phage; relative binding (LACI-K1 phage = unit) [7]: 4.5 fold of LACI-K1 phage; relative binding (LACI-K1 phage = unit) [8]: 0.7 fold of LACI-K1 phage; relative binding (LACI-K1 phage = unit) [9]: 0.5 fold of LACI-K1 phage; fold binding to plasmin beads over other protease targets [10]: ≥ 50 fold |
| SPI16 (designed binder, 110 for the printed residues 10-21) MHSFCAFKAEVGACKGRFHRWFFNIFTRQCEEFIYGGCEGNQNRFESLEECKKMCTRD | 0.22 fold of BPTI phage |  |  |
| SPI15 (designed binder, 41 for the whole domain; 90 for the printed residues 10-21; also called SP115; isolate 15) MHSFCAFKAESGPCRARFDRWFFNIFTRQCEEFIYGGCEGNQNRFESLEECKKMCTRD | 2.5 fold of BPTI phage |  |  |
| SPI01 (designed binder, 112 for the printed residues 10-21) MHSFCAFKADSGACRAMFHRFFFNIFTRQCEEFIYGGCEGNQNRFESLEECKKMCTRD | 0.25 fold of BPTI phage |  |  |
| SPI22 (designed binder, also called isolate 22) MHSFCAFKADGGPCKGKFPRFFFNIFTRQCEEFIYGGCEGNQNRFESLEECKKMCTRD | 2 fold of BPTI phage | > 2 |  |
| SPI51 (designed binder) MHSFCAFKADAGPCRAKFERFFFNIFTRQCTAFFYGGCGGNQNRFESLEECKKMCTRD |  | ~0.5 |  |
| SPI03 (designed binder, 108 for the printed residues 10-21) MHSFCAFKADSGPCKARFDRWFFNIFTRQCEEFIYGGCEGNQNRFESLEECKKMCTRD | 0.48 fold of BPTI phage |  |  |
| SPI54 (designed binder) MHSFCAFKADSGPCRARFDRWFFNIFTRQCTRFPYGGCGGNQNRFESLEECKKMCTRD |  | > 4 |  |
| SPI23 (designed binder, also called isolate 23) MHSFCAFKAEGGPCRAKFQRWFFNIFTRQCEEFIYGGCEGNQNRFESLEECKKMCTRD | 1.25 fold of BPTI phage | ~0.5 |  |
| SPI02 (designed binder, 102 for the printed residues 10-21) MHSFCAFKADSGPCRGRFERFFFNIFTRQCEEFIYGGCEGNQNRFESLEECKKMCTRD | 0.83 fold of BPTI phage |  |  |
| QS4, yeast-expressed soluble protein (designed binder, Expressed in S. cerevisiae from a mat alpha fusion, purified on trypsin-agarose; also called QS4 variant) EAAEMHSFCAFKADDGPCKARFERFFFNIFTRQCEQFYYGGCDGNQNRFESLEECKKMCTRD |  |  | Kd [11]: 2 nM |
